Experimental data reported in PMC11409006 (Computational and Structural Biotechnology Journal, 2024).

Columns and labels:
Conditions in all cases: both partners purified
[1] = target: T1, C-terminal domain of the Plasmodium falciparum circumsporozoite protein, PfCSP-Cext (Plasmodium falciparum; strain not …, UniProt Q7K740); assay: ITC; sdAbCSP1 (45 µM) titrated into the cell with PfCSP-C (4 µM); 20 mM Tris-HCl, 150 mM NaCl, pH 8.0; 25 °C; one set of sites model; triplicate
T1 construct: Plasmodium falciparum circumsporozoite protein, C-terminal domain (alpha-TSR) with unstructured N- and C-terminal extensions; the compactly folded PfCSP-C domain is aa39-100 of PfCSP-Cext; K42, K45, E46, L48, N49 of PfCSP-Cext equal K314, K317, E318, L320, N321 of PfCSP; numbers count on: the construct PfCSP-Cext; also called PfaCSP-Cext; PfCSP-C (as named in the ITC sections); source: …

[2] = target: T1, C-terminal domain of the Plasmodium …; assay: native MS; ITEM-TWO: nanoESI of the mixture (sdAbCSP1 : PfCSP-Cext = 1 : 3.4) in 200 mM ammonium acetate, pH 6.7; complex ions isolated and dissociated in the gas phase by stepwise raised collision cell voltage (2-120 V); apparent gas-phase constants; triplicate
[3] = target: T2, PfCSP-Cext (Plasmodium falciparum, UniProt Q7K740); assay: ITC; sdAbCSP1 (45 µM) titrated into the cell with PfCSP-C (4 µM); 25 °C; 20 mM Tris-HCl, 150 mM NaCl, pH 8.0; one set of sites model; triplicate
T2 construct: circumsporozoite protein (PfCSP) of Plasmodium falciparum, C-terminal domain with non-structured N- and C-terminal extensions; the compactly folded PfCSP-C domain is aa39-100; aa114-127 contain the His-tag; numbers count on: the PfCSP-Cext construct; also called C-terminal domain of the Plasmodium falciparum circumsporozoite protein; PfCSP-C (so called in the ITC methods and results); source: E. …
T2 sequence (Q7K740 310-374): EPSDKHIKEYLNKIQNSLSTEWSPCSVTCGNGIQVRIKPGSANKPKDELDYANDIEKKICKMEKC

T1 sequence (Q7K740 310-374): as above

Row | Binder | Kd [1] [nM] | dH [1] [kcal/mol] | KD m0g# (apparent quasi equilibrium constant of gas-phase complex dissociation) [2] [s⁻¹] | dH m0g# (apparent enthalpy of gas-phase complex dissociation) [2] [kcal/mol] | kD m0g# (apparent rate constant of gas-phase complex dissociation) [2] | stoichiometry N [3]
1 | camelid single domain antibody sdAbCSP1 (VHH, full length is aa1-144; CDR1 aa25-33, CDR2 aa52-57, HV4 aa74-77, CDR3 aa100-118; aa1-125 is the form without non-structured extensions; source: recombinantly expressed) VHH: QVQLQESGGGLVQAGGSLRLSCAASGRTFSSYSMGWFRLVPGKEREFVARISSSGGNTYYADSVRGRFTISRDNAKNTVYLQMNSLKPEDTAVYYCAADLLQFGRSSRAADYDYWGQGTQVTVSS | 0.5 | -8.34 | 3.7e-12 | 12 | 1e+10 Ø (unitless number) | –
2 | sdAbCSP1 (VHH, 144 residues (aa1-144); CDR1 aa25-33, CDR2 aa52-57, HV4 aa74-77, CDR3 aa100-118; aa106-108 are SSR; aa1-125 are the folded domain; also called camelid single domain antibody sdAbCSP1; pQ-sdAbCSP1 (form with N-terminal pyro-glutamine); source: recombinantly expressed) VHH: QVQLQESGGGLVQAGGSLRLSCAASGRTFSSYSMGWFRLVPGKEREFVARISSSGGNTYYADSVRGRFTISRDNAKNTVYLQMNSLKPEDTAVYYCAADLLQFGRSSRAADYDYWGQGTQVTVSS | – | – | – | – | – | 0.9 ± 0.12
